According to patent publication US20240165140A1, “MEDICATION FOR INHIBITING DNA-PKCS” (TSINGHUA UNIVERSITY, priority 2017, published 2024):
“Also recorded” adds a separate entry of the source.

What was measured:
[1] = test system: DNA-PKcs signaling pathway; assay: Immunoblotting of DNA-PKcs signaling pathway activation induced by chemotherapeutic agent; type: cell-based; details: H1299 and A549 cells; single agent 1 h (Etoposide 10 μM, Endostatin 10 μg/ml, NU7026 10 μM); compared with control group
Source text: Tumor cells (including non-small cell lung cancer H1299 and A549 cells) were divided into six treatment groups.
Tumor cells (including H1299 and A549 cells) were divided into six treatment groups.

MDA-MB-435S cells = assay: CCK8 cell activity, melanoma MDA-MB-435S; type: cell-based; details: MDA-MB-435S (P53 mutant); operation process as in Example 5
Method: (§1) First, a lentivirus kit (purchased from Shanghai Genepharma) was used to construct a P53 stably overexpressing H1299 cell line (H1299-P53) and a P53 stably knockdown A549 cell line […]. The P53 sequence targeted by the shRNA used to knock down P53 in A549 cells was 5′-[…]-3′ (SEQ ID NO: 4). Virus transfection and the construction of stable cell lines were performed according to the kit instructions. […] After treatment for 12 hours, the drug-containing medium was replaced with a normal medium and the cells were further cultured for 72 hours. Cell activity was measured according to the instructions of the CCK8 kit (Dojindo, Tokyo, Japan).
This example used two cell lines of another tumor type (melanoma), the MDA-MB-435S (P53 mutant) and A375 (P53 wild type) cell lines, to verify the regulatory function of Endostatin on the chemotherapeutic sensitivity of other types of tumor cells with different P53 status. Operation process was the same as in Example 5.

[2] = test system: PCNA and DNA-PKcs protein in H1299-NC and A549-shP53 tumor tissues; assay: Immunofluorescence of PCNA and DNA-PKcs in tumor tissue, P53-deficient mouse tumor model; type: in vivo, nude mice; details: H1299-NC and A549-shP53 tumors of Example 12; quantitative immunofluorescence
Method: (§2) Tumor-bearing nude mice were randomly divided into four groups with 6 to 8 animals for each group, and different drug treatments were performed. […] Tumor volume was measured every other day. 2 to 4 weeks after administration, the mice were sacrificed and the tumor tissue was removed for further use.
(§3) The tumor tissue removed in Example 12 was fixed and embedded, and then sectioned. PCNA (a marker molecule indicating the vigorous proliferation status of tumor cells) and DNA-PKcs protein in tumor tissues were stained by immunofluorescence technique, and were observed and imaged with a laser confocal microscope (Nikon A1). The experimental results are shown in FIG. 14A-14D, in which blue represents the nucleus of DAPI-stained cells, green represents the DNA-PKcs protein, and red represents the PCNA protein. Taking the H1299-NC tumor tissue shown in FIG. 14A as an example, the first column on the left represents DNA-PKcs single staining, and the green area represents the DNA-PKcs protein expression level. The second column on the left represents the results of DNA-PKcs (green) merged with nucleus (blue), and the overlapping part is shown in cyan. The third column on the left represents PCNA single staining, and the red area represents the PCNA protein expression level, indicating the strength of tumor cell proliferation. […]

[3] = test system: P53-deficient tumor cells (H1299-NC and A549-shP53); assay: CCK8 cell activity, P53-deficient tumor cells; type: cell-based
Method: as §1
In this example, another chemical drug, Doxorubicin, was used to verify that Endostatin can enhance the sensitivity of P53-deficient tumor cells to chemotherapy. Operation process was the same as in Example 5.

H1299 mouse tumor model = assay: Survival of H1299 tumor-bearing mice; type: in vivo; details: administration as in Example 12, stopped after 25 days
Method: as §2
H1299 and A549 cells were cultured in a vigorous and proliferative state, and tumor collection, grouping, and administration methods were the same as in Example 12. The administration was stopped after 25 days, and the survival of the mice was recorded daily, and the survival curve of the mice was plotted.

[4] = test system: tumor cells with normal P53 function (H1299-P53, A549-NC); assay: PI staining apoptosis by flow cytometry, tumor cells with normal P53 function; type: cell-based; details: Endostatin 10 μg/ml added 1 h before Etoposide 1 μM, 16 h
Method: (§4) The apoptotic cells and adherent cells floating in the culture medium were collected, and the cells were suspended in 500 μl PBS containing 0.05 mg/ml propidium iodide (PI), stained for 15 min at room temperature in dark, and detected by flow cytometry (BD FACS Calibur). PI-positive cells represent apoptotic cells.

H1299 and A549 cells = assay: Annexin V-FITC/PI apoptosis by flow cytometry with DNA-PKcs siRNA knockdown; type: cell-based; details: Endostatin 10 μg/ml added 1 h before Etoposide (10 μM for H1299, 1 μM for A549, 16 h)
Method: In this example, tumor cells (including H1299 and A549 cells) were divided into eight treatment groups. In the first four groups, cells were transfected with control siRNA, and in the last four groups, cells were transfected with siRNA that specifically knocked down DNA-PKcs. The siRNA sequence of DNA-PKcs is: forward 5′-[…]-3′ (SEQ ID NO: 5), reverse 5′-[…]-3′ (SEQ ID NO: 6). The siRNA transfection method was performed according to the instructions of the transfection reagent Lipofectamine 2000. Then, in the eight groups, the cells were treated with drugs. […] Cells were collected and operations were performed according to the instructions of Annexin V-FITC/PI Apoptosis Detection Kit. Apoptosis was detected by flow cytometry. A549 cells were P53 wild-type cells, and H1299 cells were P53-deficient cells.

[5] = test system: P53-deficient tumor cells (H1299-NC, A549-shP53); assay: PI staining apoptosis by flow cytometry, P53-deficient tumor cells; type: cell-based; details: Endostatin 10 μg/ml added 1 h before Etoposide 1 μM, 16 h
Method: as §4

[6] = test system: PCNA and DNA-PKcs protein in H1299-P53 and A549-NC tumor tissues; assay: Immunofluorescence of PCNA and DNA-PKcs in tumor tissue, mouse tumor model with normal P53 function; type: in vivo, nude mice; details: H1299-P53 and A549-NC tumors of Example 12; quantitative immunofluorescence
Method: as §2, §3

B1: Endostatin: recombinant natural human endostatin expressed by E. coli, from Protgen, SEQ ID NO: 2 (protein)
chain: MHSHRDFQPVLHLVALNSPLSGGMRGIRGADFQCFQQARAVGLAGTFRAFLSSRLQDLYSIVRRADRAAVPIVNLKDELLFPSWEALFSGSEGPLKPGARIFSFDGKDVLRHPTWPQKSVWHGSDPNGRRLTESYCETWRTEAPSATGQASSLLGGRLLGQSAASCHHAYIVLCIENSFMTASK
modifications: The amino acid sequence of natural human endostatin
Level of the DNA-PKcs signaling pathway (p-DNA-PKcs (S2056), p-AKT (S473), p-P53 (S15)) [1]: did not affect the level of the DNA-PKcs signaling pathway | Effect on toxicity of Etoposide to tumor cells (cell activity) (MDA-MB-435S cells): could enhance the toxicity of Etoposide to tumor cells | Tumor cell proliferation (PCNA) and protein level of DNA-PKcs in tumor tissue [2]: can attenuate tumor cell proliferation to a certain extent and reduce the protein level of DNA-PKcs | Effect on toxicity of Etoposide to tumor cells (cell activity) ([3]; Endostatin 10 μg/ml pretreatment 1 h, Etoposide 0, 0.1, 1, 10 μM, 12 hours treatment, 72 hours further culture): could enhance the toxicity of Etoposide to tumor cells | Effect on toxicity of Doxorubicin to tumor cells (cell activity) ([3]; Operation process as in Example 5, Doxorubicin instead of Etoposide): could enhance the toxicity of Doxorubicin to tumor cells | median survival time longer than that of the control group (H1299 mouse tumor model): 24.2% | Effect on the pro-apoptotic effect of Etoposide (PI-positive cells) [4]: did not significantly enhance the pro-apoptotic effect of Etoposide | Role of Endostatin in promoting apoptosis induced by Etoposide after knocking down DNA-PKcs (H1299 and A549 cells; DNA-PKcs siRNA): weakened | Etoposide-induced apoptosis (H1299 and A549 cells; control siRNA): would further promote Etoposide-induced apoptosis | Effect on ability of Etoposide to promote apoptosis (PI-positive cells) [5]: could enhance the ability of Etoposide to promote the apoptosis of tumor cells | Tumor cell proliferation (PCNA) and protein level of DNA-PKcs in tumor tissue [6]: could reduce the proliferation of tumor cells and reduce the protein level of DNA-PKcs; also recorded: did not enhance the inhibitory effect of Etoposide on tumor proliferation and the effect of Etoposide on the protein levels of DNA-PKcs
